The values that follow are results of earlier work, collected in patent publication US20200306346A1 (ADOCIA, priority 2017, published 2020).

The subject of data set [1] is mammalian cells in culture.
In another data set the test system is patients. As to conditions: in vivo.

“fibrillated human glucagon: "potentially dangerous nature of these fibrils: fibrillated human glucagon being cytotoxic in mammalian cells in culture"”: in data set [1], the cytotoxicity result was “cytotoxic”.
pegnivacogin: in the data set with patients, the “inflammatory responses at the first dose” value is reported as 3 out of 640.
